# Assay results reported in PMC12102759 (2025).
# B1: RNF115 peptide 67-82 (E3 ubiquitin-protein ligase RNF115), 16-mer library wild type / MDM2 SWIB (MDM2 SWIB/MDM2 domain, residues 17-125) (parent complex)
# chain 1: TTTHFAELWGHLDHTM
# chain 2: SQIPASEQETLVRPKPLLLKLLKSVGAQKDTYTMKEVLFYLGQYIMTKRLYDEKQQHIVYCSNDLLGDLFGVPSFSVKEHRKIYTMIYRNLVVVNQQESSDSGTSVSEN
# B2: PIP5K1C peptide 642-657 (Phosphatidylinositol 4-phosphate 5-kinase type-1 gamma), 16-mer library wild type / TLN1 PTB (TLN1 Phosphotyrosine-binding (PTB) domain, residues 309-401) (parent complex)
# chain 1: TDERSWVYSPLHYSAQ
# chain 2: GVSFFLVKEKMKGKNKLVPRLLGITKECVMRVDEKTKEVIQEWNLTNIKRWAASPKSFTLDFGDYQDGYYSVQTTEGEQIAQLIAGYIDIILK
# Variants of: B1
# Test: proteomic peptide phage display deep mutational scan (ProP-PD DMS): M13 P8 16-mer library selected against immobilised GST-tagged bait for four days (rounds), NGS of the eluted pools per day and pseudo-replica; bait immobilised on MaxiSorp plates (10 µg), library pre-cleared on GST, 2 h binding at 4 °C, five washes; one round per day, days 1-4; value from days 2 and 3
row,Variant,screen value
1,chain 1 G10S,"0.00615 average fractional NGS count over selection days 2 and 3 (reads of this peptide / all reads for the bait, averaged over …"
2,chain 1 D13E,"0.000754 average fractional NGS count over selection days 2 and 3 (reads of this peptide / all reads for the bait, averaged over …"
3,chain 1 D13I,"0.00102 average fractional NGS count over selection days 2 and 3 (reads of this peptide / all reads for the bait, averaged over …"
4,chain 1 L12N,"0.000651 average fractional NGS count over selection days 2 and 3 (reads of this peptide / all reads for the bait, averaged over …"
5,chain 1 T3P,"0.000694 average fractional NGS count over selection days 2 and 3 (reads of this peptide / all reads for the bait, averaged over …"
6,chain 1 T3F,"0.000452 average fractional NGS count over selection days 2 and 3 (reads of this peptide / all reads for the bait, averaged over …"
7,chain 1 T3M,"0.000962 average fractional NGS count over selection days 2 and 3 (reads of this peptide / all reads for the bait, averaged over …"
8,chain 1 T15Q,"0.000103 average fractional NGS count over selection days 2 and 3 (reads of this peptide / all reads for the bait, averaged over …"
9,chain 1 T15S,"0.000189 average fractional NGS count over selection days 2 and 3 (reads of this peptide / all reads for the bait, averaged over …"
10,chain 1 H11I,"0.000552 average fractional NGS count over selection days 2 and 3 (reads of this peptide / all reads for the bait, averaged over …"
11,chain 1 H11E,"0.000714 average fractional NGS count over selection days 2 and 3 (reads of this peptide / all reads for the bait, averaged over …"
12,chain 1 T2P,"0.000494 average fractional NGS count over selection days 2 and 3 (reads of this peptide / all reads for the bait, averaged over …"
13,chain 1 H14N,"0.00027 average fractional NGS count over selection days 2 and 3 (reads of this peptide / all reads for the bait, averaged over …"
14,chain 1 H4K,"0.000298 average fractional NGS count over selection days 2 and 3 (reads of this peptide / all reads for the bait, averaged over …"
15,chain 1 H4Q,"0.00071 average fractional NGS count over selection days 2 and 3 (reads of this peptide / all reads for the bait, averaged over …"
16,chain 1 H4V,"0.000238 average fractional NGS count over selection days 2 and 3 (reads of this peptide / all reads for the bait, averaged over …"
17,chain 1 M16V,"0.00172 average fractional NGS count over selection days 2 and 3 (reads of this peptide / all reads for the bait, averaged over …"
18,chain 1 M16P,"0.000227 average fractional NGS count over selection days 2 and 3 (reads of this peptide / all reads for the bait, averaged over …"
19,chain 1 M16F,"0.000243 average fractional NGS count over selection days 2 and 3 (reads of this peptide / all reads for the bait, averaged over …"
20,chain 1 M16L,"0.0016 average fractional NGS count over selection days 2 and 3 (reads of this peptide / all reads for the bait, averaged over …"

# Variants of: B2
# Test: as above
row,Variant,screen value
1,chain 1 W6P,"0.000161 average fractional NGS count over selection days 2 and 3 (reads of this peptide / all reads for the bait, averaged over …"
2,chain 1 W6R,"0.000143 average fractional NGS count over selection days 2 and 3 (reads of this peptide / all reads for the bait, averaged over …"
3,chain 1 H12M,"0.0016 average fractional NGS count over selection days 2 and 3 (reads of this peptide / all reads for the bait, averaged over …"
4,chain 1 H12L,"0.00133 average fractional NGS count over selection days 2 and 3 (reads of this peptide / all reads for the bait, averaged over …"
5,chain 1 H12I,"0.000636 average fractional NGS count over selection days 2 and 3 (reads of this peptide / all reads for the bait, averaged over …"
6,chain 1 H12S,"0.000155 average fractional NGS count over selection days 2 and 3 (reads of this peptide / all reads for the bait, averaged over …"
7,chain 1 H12E,"0.00161 average fractional NGS count over selection days 2 and 3 (reads of this peptide / all reads for the bait, averaged over …"
8,chain 1 H12F,"0.00153 average fractional NGS count over selection days 2 and 3 (reads of this peptide / all reads for the bait, averaged over …"
9,chain 1 H12Y,"0.000256 average fractional NGS count over selection days 2 and 3 (reads of this peptide / all reads for the bait, averaged over …"
10,chain 1 H12V,"0.00311 average fractional NGS count over selection days 2 and 3 (reads of this peptide / all reads for the bait, averaged over …"
11,chain 1 H12R,"0.000172 average fractional NGS count over selection days 2 and 3 (reads of this peptide / all reads for the bait, averaged over …"
12,chain 1 P10N,"0.00396 average fractional NGS count over selection days 2 and 3 (reads of this peptide / all reads for the bait, averaged over …"
13,chain 1 P10E,"0.000515 average fractional NGS count over selection days 2 and 3 (reads of this peptide / all reads for the bait, averaged over …"
14,chain 1 P10S,"0.00055 average fractional NGS count over selection days 2 and 3 (reads of this peptide / all reads for the bait, averaged over …"
15,chain 1 P10L,"0.00637 average fractional NGS count over selection days 2 and 3 (reads of this peptide / all reads for the bait, averaged over …"
16,chain 1 P10A,"0.00236 average fractional NGS count over selection days 2 and 3 (reads of this peptide / all reads for the bait, averaged over …"
17,chain 1 P10T,"0.00133 average fractional NGS count over selection days 2 and 3 (reads of this peptide / all reads for the bait, averaged over …"
18,chain 1 P10I,"0.00026 average fractional NGS count over selection days 2 and 3 (reads of this peptide / all reads for the bait, averaged over …"
19,chain 1 P10Y,"0.000349 average fractional NGS count over selection days 2 and 3 (reads of this peptide / all reads for the bait, averaged over …"
20,chain 1 P10V,"0.000485 average fractional NGS count over selection days 2 and 3 (reads of this peptide / all reads for the bait, averaged over …"
21,chain 1 P10G,"0.00227 average fractional NGS count over selection days 2 and 3 (reads of this peptide / all reads for the bait, averaged over …"
22,chain 1 P10Q,"0.001 average fractional NGS count over selection days 2 and 3 (reads of this peptide / all reads for the bait, averaged over …"
23,chain 1 P10R,"0.000767 average fractional NGS count over selection days 2 and 3 (reads of this peptide / all reads for the bait, averaged over …"
24,chain 1 P10F,"0.0019 average fractional NGS count over selection days 2 and 3 (reads of this peptide / all reads for the bait, averaged over …"
25,chain 1 P10K,"0.00642 average fractional NGS count over selection days 2 and 3 (reads of this peptide / all reads for the bait, averaged over …"
26,chain 1 P10D,"0.00117 average fractional NGS count over selection days 2 and 3 (reads of this peptide / all reads for the bait, averaged over …"
27,chain 1 Y13T,"0.000772 average fractional NGS count over selection days 2 and 3 (reads of this peptide / all reads for the bait, averaged over …"
28,chain 1 Y13N,"0.00437 average fractional NGS count over selection days 2 and 3 (reads of this peptide / all reads for the bait, averaged over …"

row,Variant,screen value
1,chain 1 Y13H,"0.000476 average fractional NGS count over selection days 2 and 3 (reads of this peptide / all reads for the bait, averaged over …"
2,chain 1 Y13R,"0.00043 average fractional NGS count over selection days 2 and 3 (reads of this peptide / all reads for the bait, averaged over …"
3,chain 1 Y13W,"0.000603 average fractional NGS count over selection days 2 and 3 (reads of this peptide / all reads for the bait, averaged over …"
4,chain 1 Y13L,"0.00182 average fractional NGS count over selection days 2 and 3 (reads of this peptide / all reads for the bait, averaged over …"
5,chain 1 Y13K,"0.000613 average fractional NGS count over selection days 2 and 3 (reads of this peptide / all reads for the bait, averaged over …"
6,chain 1 Y13V,"0.0012 average fractional NGS count over selection days 2 and 3 (reads of this peptide / all reads for the bait, averaged over …"
7,chain 1 Y13S,"0.00787 average fractional NGS count over selection days 2 and 3 (reads of this peptide / all reads for the bait, averaged over …"
8,chain 1 Y13P,"0.00124 average fractional NGS count over selection days 2 and 3 (reads of this peptide / all reads for the bait, averaged over …"
9,chain 1 Y13Q,"0.00224 average fractional NGS count over selection days 2 and 3 (reads of this peptide / all reads for the bait, averaged over …"
10,chain 1 Y13I,"0.00816 average fractional NGS count over selection days 2 and 3 (reads of this peptide / all reads for the bait, averaged over …"
11,chain 1 S9M,"0.000276 average fractional NGS count over selection days 2 and 3 (reads of this peptide / all reads for the bait, averaged over …"
12,chain 1 S9H,"0.000148 average fractional NGS count over selection days 2 and 3 (reads of this peptide / all reads for the bait, averaged over …"
13,chain 1 S9D,"7.45e-05 average fractional NGS count over selection days 2 and 3 (reads of this peptide / all reads for the bait, averaged over …"
14,chain 1 S9N,"0.0022 average fractional NGS count over selection days 2 and 3 (reads of this peptide / all reads for the bait, averaged over …"
15,chain 1 S9T,"0.000558 average fractional NGS count over selection days 2 and 3 (reads of this peptide / all reads for the bait, averaged over …"
16,chain 1 A15M,"0.00017 average fractional NGS count over selection days 2 and 3 (reads of this peptide / all reads for the bait, averaged over …"
17,chain 1 A15H,"0.000752 average fractional NGS count over selection days 2 and 3 (reads of this peptide / all reads for the bait, averaged over …"
18,chain 1 A15W,"0.00297 average fractional NGS count over selection days 2 and 3 (reads of this peptide / all reads for the bait, averaged over …"
19,chain 1 A15T,"0.00116 average fractional NGS count over selection days 2 and 3 (reads of this peptide / all reads for the bait, averaged over …"
20,chain 1 A15G,"0.000489 average fractional NGS count over selection days 2 and 3 (reads of this peptide / all reads for the bait, averaged over …"
21,chain 1 A15L,"0.00142 average fractional NGS count over selection days 2 and 3 (reads of this peptide / all reads for the bait, averaged over …"
22,chain 1 A15E,"0.00381 average fractional NGS count over selection days 2 and 3 (reads of this peptide / all reads for the bait, averaged over …"
23,chain 1 A15N,"0.000427 average fractional NGS count over selection days 2 and 3 (reads of this peptide / all reads for the bait, averaged over …"
24,chain 1 A15D,"0.00285 average fractional NGS count over selection days 2 and 3 (reads of this peptide / all reads for the bait, averaged over …"
25,chain 1 A15R,"0.000696 average fractional NGS count over selection days 2 and 3 (reads of this peptide / all reads for the bait, averaged over …"
26,chain 1 A15P,"0.00282 average fractional NGS count over selection days 2 and 3 (reads of this peptide / all reads for the bait, averaged over …"
27,chain 1 S14I,"0.000211 average fractional NGS count over selection days 2 and 3 (reads of this peptide / all reads for the bait, averaged over …"
